Results on one molecule are retold here after patent US20100261647A1 (ARMAGEN TECHNOLOGIES, published 2010).

Test [1] concerns the target T1, human insulin receptor extracellular domain (HIR ECD) (human, UniProt P06213 28-956, limits assumed).
T1 construct: extracellular domain
Briefly: ELISA on plated HIR ECD, detection with biotinylated goat anti-human IgG (H+L). How it is done:
CHO cells permanently transfected with the HIR ECD were grown in serum free media (SFM), and the HIR ECD was purified with a wheat germ agglutinin affinity column.

Test [2] has as its target T1, human insulin receptor extracellular …. Nature of the test: competitive ligand binding assay, displacement of [125I]-murine HIRMAb from plated HIR ECD, Scatchard analysis. How it is done:
CHO cells transfected with the HIR ECD were grown in serum free media (SFM), and the HIR ECD was purified with a wheat germ agglutinin affinity column.

B1: chimeric HIRMAb (chimeric monoclonal antibody against the human insulin receptor) (antibody, human IgG1, kappa, V domains shown)
VH: QVQLQQSGPELVKPGALVKISCKASGYTFTNYDIHWVKQRPGQGLEWIGWIYPGDGSTKYNEKFKGKATLTADKSSSTAYMHLSSLTSEKSAVYFCAREWAYWGQGTLVTVSA
VL: DIQMTQSPSSLSASLGERVSLTCRASQDIGGNLYWLQQGPDGTIKRLIYATSSLDSGVPKRFSGSRSGSDYSLTISSLESEDFVDYYCLQYSSSPWTFGGGTKMEIKR
notes: Chimeric human IgG1/kappa
B1: the EC50 in test [1] is 0.21 nM. Besides, in test [2], the Ki turned out to be 0.63 nM.
